Measurements reported in publication PMC4159269.

Experiments:
Assay in all cases: co-IP; HEK293T co-transfected with FLAG-Siah construct and HA-PHD3; lysate on anti-FLAG M2 agarose beads, 4°C 1 hour, washed with NP40 lysis buffer; blot with anti-HA; densitometry as percentage of WT Siah2 SBD for Fig. 7c
[1] = target: SBD[S1]^NT[S2]^CT (SBD chimera with Siah1 N-terminus and Siah2 C-terminus) (human)
[2] = target: [S1-6Mut]^NT[S2]^CT (6Mut = E17S/P21H/A26P/P57S/Q62A/F98H) (human)
[3] = target: [S1-8Mut]^NT[S2]^CT (8Mut = N3S/E17S/P21H/A26P/F34Y/P57S/Q62A/F98H) (human)

Work on “HA-PHD3 (prolyl hydroxylase 3) (from UniProt Q9H6Z9 1-239) (natural protein)” yielded a binding as percentage of the binding of WT Siah2 SBD to PHD3 (densitometry) [1] of 4 percent, a binding as percentage of the binding of WT Siah2 SBD to PHD3 (densitometry) [2] of 29 percent and a binding as percentage of the binding of WT Siah2 SBD to PHD3 (densitometry) [3] of 48 percent.
